These results are taken from US20150038408A1 (University of Washington, published 2015).

Like-named read-outs stand apart in the source and are kept apart here.

Assay [1] has as its target T1, A/South Carolina/1/1918 (H1N1) hemagglutinin ectodomain (Influenza A virus A/South …). Kind of assay: yeast surface display titration.
Assay [2] deals with T1, A/South Carolina/1/1918 (H1N1) …. Kind of assay: yeast surface display titration. This is another data set of the same source.

B1: HB80.3_s4_E94 (designed binder)
chain: ASTRGSGRPWKFSENVAFELALYFTNKDTPDRWAKVARYVKGRTPEEVKKHYE
In the case of B1, the binding result in assay [1] is “binds”.

B2: HB80.3_s4_E82 (designed binder)
chain: MASTRGSGRPWKFSENVAFEIALSFTNKDTPDRWAKVARYVRGRTPEEVKKHYE
B2: the binding result in assay [1] is reported as “binds”.

B3: HB36.4_s4_E11 (designed binder)
chain: MSNAMDGQQLNRLLLEWIGAWDPFGLGKDAYDVEADAVLKAVYETNSAFDLAMRIHWIYNFAFKRKIPFVHAQKLARRLLELKQAASSPLP
For the molecule B3, in assay [2], the binding result is “binds”.
